Reference: article PMC5964024

Legend:
[1] = target: myc-tagged human CCR5 (wildtype) (human) (UniProt P51681); assay: flow cytometry on cells
[2] = target: R5gp120-Hi (human) (UniProt P51681); assay: flow cytometry on cells

Substance “BaL gp120-CD4-FLAG (from UniProt P01730 26-209) (ligand)” has a Kd [1] of 32 nM and a Kd [2] of 12 nM.
